Test results taken from paper PMC2504287 (Nucleic Acids Research, 2008).

What was measured:
[1] = target: the molecule itself
[2] = target: the molecule itself; experiment: native gel or EMSA
[3] = target: T1, C.Esp1396I controller protein (UniProt Q8GGH0 1-79); experiment: EMSA
T1 sequence: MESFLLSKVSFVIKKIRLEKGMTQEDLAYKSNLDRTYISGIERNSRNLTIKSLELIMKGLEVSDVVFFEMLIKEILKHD

B1: C.Esp1396I controller protein (wild type) (natural protein)
chain: GSHMESFLLSKVSFVIKKIRLEKGMTQEDLAYKSNLDRTYISGIERNSRNLTIKSLELIMKGLEVSDVVFFEMLIKEILKHD
Work on B1 yielded a Kd [1] of about 600 nM.

B2: C.Esp1396I E25A mutant (natural protein)
chain: GSHMESFLLSKVSFVIKKIRLEKGMTQADLAYKSNLDRTYISGIERNSRNLTIKSLELIMKGLEVSDVVFFEMLIKEILKHD
B2: binds [2].

B3: OL (OR mutated) (dsDNA)
DNA 1: ATGTGACTTATAGTCCGTCTAGCCTAGCCTAGCCT
DNA 2: AGGCTAGGCTAGGCTAGACGGACTATAAGTCACAT
B3: binds [3].
